What was measured:
[1] = molecular target: NTSR1-EL (baculovirus construct with wild-type ICL3) (rat) (UniProt P20789)
[2] = molecular target: NTSR1-ELF (baculovirus construct with wild-type ICL3) (rat) (UniProt P20789)

Chain of Gq protein (P50148 whole entry, looked up): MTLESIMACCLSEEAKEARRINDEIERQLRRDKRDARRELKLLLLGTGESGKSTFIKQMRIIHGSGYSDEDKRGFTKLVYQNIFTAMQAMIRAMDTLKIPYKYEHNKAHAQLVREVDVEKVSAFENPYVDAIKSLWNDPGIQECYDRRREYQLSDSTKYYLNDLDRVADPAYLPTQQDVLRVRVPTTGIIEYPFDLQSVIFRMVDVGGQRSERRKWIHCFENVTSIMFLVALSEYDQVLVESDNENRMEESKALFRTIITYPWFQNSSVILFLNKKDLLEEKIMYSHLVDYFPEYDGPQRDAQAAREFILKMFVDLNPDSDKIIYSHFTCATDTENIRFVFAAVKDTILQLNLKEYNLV

| Substance | Fold-stimulation by NTS GTPγS: GDP/[35S]GTPγS exchange on Gq at saturating NTS compared to no ligand, urea-washed P2 insect cell membranes and purified Gq protein [1] | Fold-stimulation by NTS GTPγS: GDP/[35S]GTPγS exchange on Gq at saturating NTS compared to no ligand, urea-washed P2 insect cell membranes and purified Gq protein [2] | EC50 (NTS) GTPγS, half maximal effective concentration of NTS on the exchange of GDP for GTPγS on Gq [1] |
| --- | --- | --- | --- |
| Gq protein (from UniProt P50148 1-359) (complex) | 3.3 fold | 5.6 fold |  |
| neurotensin (NTS) (peptide) |  |  | 5.5 nM |
